B1: SEQ ID NO: 1206: inducible system polypeptide, probably Table 22 (reader and repressible protease) (protein)
chain: MAPKKKRKVGIHGVPAASSDEEEARELIERAKEAAERAQEAAERTGDPRVRELARELKRLAQEAAEEVKRDPSSSDVNEALKLIVEAIEAAVDALEAAERTGDPEVRELARELVRLAVEAAEEVQRNPSSSDVNEALHSIVYAIEAAIFALEAAERTGDPEVRELARELVRLAVEAAEEVQRNPSSRNVEHALMRIVLAIYLAEENLREAEESGDPEKREKARERVREAVERAEEVQRDPSGWLNHSGGSGSGSSGGSGTAKFVEEYAFFKDSAKIADELRLIKSFARMGEPIADARRAMYIDAIRILGTNLSYDELKALADTFSLDENGNKLKKGKHGMRNFIINNVISNKRFHYLIRYGDPAHLHEIAKNEAVVKFVLGRIADIQKKQGQNGKNQIDRYYETCIGKDKGKSVSEKVDALTKIITGMNYDQFDKKRSVIEDTGRENAEREKFKKIISLYLTVIYHILKNIVNINARYVIGFHCVERDAQLYKEKGYDINLKKLEEKGFSSVTKLCAGIDETAPDKRKDVEKEMAERAKESIDSLESANPKLYANYIKYSDEKKAEEFTRQINREKAKTALNAYLRNTKWNVIIREDLLRIDNKTCTLFRNKAVHLEVARYVHAYINDIAEVNSYFQLYHYIMQRIIMNERYEKSSGKVSEYFDAVNDEKKYNDRLLKLLCVPFGYCIPRFKNLSIEALFDRNEAAKFDKEKKKVSGNSGSGPKKKRKV
B2: SEQ ID NO: 391: PV1-ABI-L1-Cas13-508C-BGHpA (protein)
chain: MPLYGFTSICGRRPEMEDAVSTIPRFLQSSSGSMLDGRFDPQSAAHFFGVYDGHGGSQVANYCRERMHLALAEEIAKEKPMLCDGDTWLEKWKKALFNSFLRVDSEIGSVAPETVGSTSVVAVVFPSHIFVANCGDSRAVLCRGKTALPLSVDHKPDREDEAARIEAAGGKVIQWNGARVFGVLAMSRSIGDRYLKPSIIPDPEVTAVKRVKEDDCLILASDGVWDVMTDEEACEMARKRILLWHKKNAVAGDASLLADERRKEGKDPAAMSAAEYLSKLAIQRGSKDNISVVVVDLKDYKDDDDKSGGSGSGSSGGSGTAKFVEEYAFFKDSAKIADELRLIKSFARMGEPIADARRAMYIDAIRILGTNLSYDELKALADTFSLDENGNKLKKGKHGMRNFIINNVISNKRFHYLIRYGDPAHLHEIAKNEAVVKFVLGRIADIQKKQGQNGKNQIDRYYETCIGKDKGKSVSEKVDALTKIITGMNYDQFDKKRSVIEDTGRENAEREKFKKIISLYLTVIYHILKNIVNINARYVIGFHCVERDAQLYKEKGYDINLKKLEEKGFSSVTKLCAGIDETAPDKRKDVEKEMAERAKESIDSLESANPKLYANYIKYSDEKKAEEFTRQINREKAKTALNAYLRNTKWNVIIREDLLRIDNKTCTLFRNKAVHLEVARYVHAYINDIAEVNSYFQLYHYIMQRIIMNERYEKSSGKVSEYFDAVNDEKKYNDRLLKLLCVPFGYCIPRFKNLSIEALFDRNEAAKFDKEKKKVSGNSGSGPKKKRKVPKKKRKV
B3: SEQ ID NO: 392: PV1-Cas13 N507-L1-PYL-NLS-BGHpA (protein)
chain: MIEKKKSFAKGMGVKSTLVSGSKVYMTTFAEGSDARLEKIVEGDSIRSVNEGEAFSAEMADKNAGYKIGNAKFSHPKGYAVVANNPLYTGPVQQDMLGLKETLEKRYFGESADGNDNICIQVIHNILDIEKILAEYITNAAYAVNNISGLDKDIIGFGKFSTVYTYDEFKDPEHHRAAFNNNDKLINAIKAQYDEFDNFLDNPRLGYFGQAFFSKEGRNYIINYGNECYDILALLSGLRHWVVHNNEEESRISRTWLYNLDKNLDNEYISTLNYLYDRITNELTNSFSKNSAANVNYIAETLGINPAEFAEQYFRFSIMKEQKNLGFNITKLREVMLDRKDMSEIRKNHKVFDSIRTKVYTMMDFVIYRYYIEEDAKVAAANKSLPDNEKSLSEKDIFVINLRGSFNDDQKDALYYDEANRIWRKLENIMHNIKEFRGNKTREYKKKDAPRLPRILPAGRDVSAFSKLMYALTMFLDGKEINDLLTTLINKFDNIQSFLKVMPLIGVNSGGSGSGSSGGSGTAPTQDEFTQLSQSIAEFHTYQLGNGRCSSLLAQRIHAPPETVWSVVRRFDRPQIYKHFIKSCNVSEDFEMRVGCTRDVNVISGLPANTSRERLDLLDDDRRVTGFSITGGEHRLRNYKSVTTVHRFEKEEEEERIWTVVLESYVVDVPEGNSEEDTRLFADTVIRLNLQKLASITEAMNYPYDVPDYAPKKKRKV
B4: SEQ ID NO: 769: inducible system polypeptide, probably Table 20 (GID-GAI) (protein)
chain: MIEKKKSFAKGMGVKSTLVSGSKVYMTTFAEGSDARLEKIVEGDSIRSVNEGEAFSAEMADKNAGYKIGNAKFSHPKGYAVVANNPLYTGPVQQDMLGLKETLEKRYFGESADGNDNICIQVIHNILDIEKILAEYITNAAYAVNNISGLDKDIIGFGKFSTVYTYDEFKDPEHHRAAFNNNDKLINAIKAQYDEFDNFLDNPRLGYFGQAFFSKEGRNYIINYGNECYDILALLSGLRHWVVHNNEEESRISRTWLYNLDKNLSGGSGSGSSGGSGTMAASDEVNLIESRTVVPLNTWVLISNFKVAYNILRRPDGTFNRHLAEYLDRKVTANANPVDGVFSFDVLIDRRINLLSRVYRPAYADQEQPPSILDLEKPVDGDIVPVILFFHGGSFAHSSANSAIYDTLCRRLVGLCKCVVVSVNYRRAPENPYPCAYDDGWIALNWVNSRSWLKSKKDSKVHIFLAGDSSGGNIAHNVALRAGESGIDVLGNILLNPMFGGNERTESEKSLDGKYFVTVRDRDWYWKAFLPEGEDREHPACNPFSPRGKSLEGVSFPKSLVVVAGLDLIRDWQLAYAEGLKKAGQEVKLMHLEKATVGFYLLPNNNHFHNVMDEISAFVNAECPKKKRKV
B5: SEQ ID NO: 770: inducible system polypeptide, probably Table 20 (GID-GAI) (protein)
chain: MKRDHHHHHHQDKKTMMMNEEDDGNGMDELLAVLGYKVRSSEMADVAQKLEQLEVMMSNVQEDDLSQLATETVHYNPAELYTWLDSMLTDLNSGGSGSGSSGGSGTDNEYISTLNYLYDRITNELTNSFSKNSAANVNYIAETLGINPAEFAEQYFRFSIMKEQKNLGFNITKLREVMLDRKDMSEIRKNHKVFDSIRTKVYTMMDFVIYRYYIEEDAKVAAANKSLPDNEKSLSEKDIFVINLRGSFNDDQKDALYYDEANRIWRKLENIMHNIKEFRGNKTREYKKKDAPRLPRILPAGRDVSAFSKLMYALTMFLDGKEINDLLTTLINKFDNIQSFLKVMPLIGVNAKFVEEYAFFKDSAKIADELRLIKSFARMGEPIADARRAMYIDAIRILGTNLSYDELKALADTFSLDENGNKLKKGKHGMRNFIINNVISNKRFHYLIRYGDPAHLHEIAKNEAVVKFVLGRIADIQKKQGQNGKNQIDRYYETCIGKDKGKSVSEKVDALTKIITGMNYDQFDKKRSVIEDTGRENAEREKFKKIISLYLTVIYHILKNIVNINARYVIGFHCVERDAQLYKEKGYDINLKKLEEKGFSSVTKLCAGIDETAPDKRKDVEKEMAERAKESIDSLESANPKLYANYIKYSDEKKAEEFTRQINREKAKTALNAYLRNTKWNVIIREDLLRIDNKTCTLFRNKAVHLEVARYVHAYINDIAEVNSYFQLYHYIMQRIIMNERYEKSSGKVSEYFDAVNDEKKYNDRLLKLLCVPFGYCIPRFKNLSIEALFDRNEAAKFDKEKKKVSGNSGSGPKKKRKV
B6: SEQ ID NO: 792: inducible system polypeptide, probably Table 20 (GID-GAI) (protein)
chain: MAPKKKRKVGIHGVPAAKRDHHHHHHQDKKTMMMNEEDDGNGMDELLAVLGYKVRSSEMADVAQKLEQLEVMMSNVQEDDLSQLATETVHYNPAELYTWLDSMLTDLNSGGSGSGSSGGSGTGPVQQDMLGLKETLEKRYFGESADGNDNICIQVIHNILDIEKILAEYITNAAYAVNNISGLDKDIIGFGKFSTVYTYDEFKDPEHHRAAFNNNDKLINAIKAQYDEFDNFLDNPRLGYFGQAFFSKEGRNYIINYGNECYDILALLSGLRHWVVHNNEEESRISRTWLYNLDKNLDNEYISTLNYLYDRITNELTNSFSKNSAANVNYIAETLGINPAEFAEQYFRFSIMKEQKNLGFNITKLREVMLDRKDMSEIRKNHKVFDSIRTKVYTMMDFVIYRYYIEEDAKVAAANKSLPDNEKSLSEKDIFVINLRGSFNDDQKDALYYDEANRIWRKLENIMHNIKEFRGNKTREYKKKDAPRLPRILPAGRDVSAFSKLMYALTMFLDGKEINDLLTTLINKFDNIQSFLKVMPLIGVNAKFVEEYAFFKDSAKIADELRLIKSFARMGEPIADARRAMYIDAIRILGTNLSYDELKALADTFSLDENGNKLKKGKHGMRNFIINNVISNKRFHYLIRYGDPAHLHEIAKNEAVVKFVLGRIADIQKKQGQNGKNQIDRYYETCIGKDKGKSVSEKVDALTKIITGMNYDQFDKKRSVIEDTGRENAEREKFKKIISLYLTVIYHILKNIVNINARYVIGFHCVERDAQLYKEKGYDINLKKLEEKGFSSVTKLCAGIDETAPDKRKDVEKEMAERAKESIDSLESANPKLYANYIKYSDEKKAEEFTRQINREKAKTALNAYLRNTKWNVIIREDLLRIDNKTCTLFRNKAVHLEVARYVHAYINDIAEVNSYFQLYHYIMQRIIMNERYEKSSGKVSEYFDAVNDEKKYNDRLLKLLCVPFGYCIPRFKNLSIEALFDRNEAAKFDKEKKKVSGNSGSGPKKKRKV

Test system: mCherry expression in HEK293 FT cells
Experiment: Inducible split RfxCas13d (GIB, RAP, ABA, Dano, GRZ CID domains; NES/NLS variants) mCherry knockdown, leakiness and inducibility
Assay type: cell-based
Conditions: inducible polypeptide systems of Tables 18-22
Excerpt: FIG. 6A-6C is a series of schematics and graphs showing that split RfxCas13d's reconstituted and functioned to knockdown mCherry expression in HEK293 FT cells FIG. 6A is a schematic showing split sites selected throughout RfxCas13d sequence. FIG. 6B is a bar graph showing mCherry expression under 4 conditions for gibberellin-inducible, rapalog-inducible, and abscisic acid-inducible inducible split Cas13d designs. In FIG. 6B and FIG. 6C, the left-right order of the bars for each split site is the same as the left-right order of the legend for each bar graph.
FIG. 7A-7E is a series of schematics and graphs showing a functional and inducible split Cas13d design. FIG. 7A is a bar graph showing additional split sites selected in RfxCas13d and tested with GIB CID domains. […] In FIG. 7A and FIG. 7C, the left-right order of the bars for each split site is the same as the left-right order of the legend. FIG. 7B is a schematic showing the design to compartmentalize splits. Compartmentalizing moieties facilitates the reduction of leakiness. […] FIG. 7D is a schematic showing the experiment flow for testing reversibility of the inducible split Cas13d's.
FIG. 8A-8B is a series of schematics and graphs showing that split RfxCas13d's reconstituted upon drug-induced dimerization and knocked down mCherry expression in HEK293 FT cells. FIG. 8A is a bar graph showing quantification of system performance. The left-right order of the bars for each split site is the same as the top-down order of the legend. […] System performance in leakiness score (left axis) and induced activity (right axis) by GIB, RAP, ABA, and Dano-inducible split Cas13d designs.
FIG. 10A-10B is a series of schematics and graphs showing performance optimization through separating split Cas13d moieties in different cellular compartments. […] The left-right order of the bars for each bar graph is the same as the top-down order of the legend.
FIG. 11 is a series of schematics and graphs showing the testing of reversed orientation (dark grey dots) of CID domains with respect to split Cas13d pieces against original orientations (light grey dots) designed for GIB, ABA, Dano, and GRZ inducible systems.

| Molecule | performance in the tested conditions |
| --- | --- |
| B1 | highest performance |
| B2 | highest performance |
| B3 | highest performance |
| B4 | highest performance |
| B5 | highest performance |
| B6 | highest performance |

Source: patent publication US12180485B2, “Repressible control of gene expression” (TRUSTEES OF BOSTON UNIVERSITY, priority 2020, dated 2024)
